The values below come from US20210230272A1 (L AND L BIOPHARMA, published 2021).

The target of assay [1] is T1, human PD-1 (human, UniProt Q15116 25-170).
T1 construct: extracellular domain; also called PD-1 antigen
Nature of the assay: blocking ELISA; IC50 ratio to the control monoclonal antibody.

Assay [2] concerns the target T1, human PD-1. In words: ELISA; EC50 ratio to the control monoclonal antibody. (In general: In an ELISA, binding on a coated surface is turned into a signal by an enzyme label.)
Assay [3] has as its target T1, human PD-1. Nature of the assay: blocking ELISA: PD-1 coated, biotin-labelled PD-L1.
Assay [4] has as its target T1, human PD-1. In words: ELISA, PD-1 coated.

Usually IC50 stands for the concentration that gives 50% inhibition. In general, EC50 refers to the midpoint of the concentration-response curve. The low end stands for a more potent agent, the high end for a less potent agent.

T1 sequence (Q15116 25-170): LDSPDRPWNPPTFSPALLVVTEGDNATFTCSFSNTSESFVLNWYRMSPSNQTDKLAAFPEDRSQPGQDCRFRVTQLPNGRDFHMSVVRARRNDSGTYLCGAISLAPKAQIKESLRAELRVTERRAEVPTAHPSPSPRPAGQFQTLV

B1: LB309 (bispecific antibody)
chain 1: not shown
chain 2: QVQLVQSGAEVKKPGSSVKVSCKASGYAFSNYLIEWVKQAPGQGLEWIGLINPGSGGTNYNEKFKGKATITADKSTSTAYMELSSLRSEDTAVYYCARVYYGNSFAYWGQGTLVTVSS
chain 3: DIVMTQSPDSLAVSLGERATISCKSSQSLLNSGNQKNYLTWYQQKPGQPPKLLIYWASTRESGVPDRFSGSGSGTDFTLTISSLQAEDVAVYYCQNDYFYPFTFGQGTKLEIK
chain 4: not shown
In the case of B1, the IC50 fold change with human PD-1 [1] was 2.42. Also, the EC50 fold change in the assay with human PD-1 [2] is 1.33. This molecule registered an IC50 with human PD-1 [3] of 0.8 nM. The EC50 with human PD-1 [4] amounted to 0.16 nM.

B2: LB313 (bispecific antibody)
chain 1: not shown
chain 2: EIVLTQSPATLSLSPGERATLSCRASKGVSTSGYSYLHWYQQKPGQAPRLLIYLASYLESGVPARFSGSGSGTDFTLTISSLEPEDFAVYYCQHSRDLPLTFGGGTKVEIKRTVAAPSVFIFPPSDEQLKSGTASVVCLLNNFYPREAKVQWKVDNALQSGNSQESVTEQDSKDSTYSLSSTLTLSKADYEKHKVYACEVTHQGLSSPVTKSFNRGEC
chain 3: QVQLVQSGAEVKKPGSSVKVSCKASGYAFSNYLIEWVKQAPGQGLEWIGLINPGSGGTNYNEKFKGKATITADKSTSTAYMELSSLRSEDTAVYYCARVYYGNSFAYWGQGTLVTVSS
chain 4: DIVMTQSPDSLAVSLGERATISCKSSQSLLNSGNQKNYLTWYQQKPGQPPKLLIYWASTRESGVPDRFSGSGSGTDFTLTISSLQAEDVAVYYCQNDYFYPFTFGQGTKLEIK
In the case of B2, in the assay with human PD-1 [2], the EC50 fold change was determined as 3.4. Also, in the assay with human PD-1 [4], the EC50 amounted to 0.048 nM.

B3: LB312 (bispecific antibody)
chain 1: not shown
chain 2: DIVMTQSPDSLAVSLGERATISCKSSQSLLNSGNQKNYLTWYQQKPGQPPKLLIYWASTRESGVPDRFSGSGSGTDFTLTISSLQAEDVAVYYCQNDYFYPFTFGQGTKLEIK
chain 3: QVQLVQSGAEVKKPGSSVKVSCKASGYAFSNYLIEWVKQAPGQGLEWIGLINPGSGGTNYNEKFKGKATITADKSTSTAYMELSSLRSEDTAVYYCARVYYGNSFAYWGQGTLVTVSS
chain 4: EIVLTQSPATLSLSPGERATLSCRASKGVSTSGYSYLHWYQQKPGQAPRLLIYLASYLESGVPARFSGSGSGTDFTLTISSLEPEDFAVYYCQHSRDLPLTFGGGTKVEIKRTVAAPSVFIFPPSDEQLKSGTASVVCLLNNFYPREAKVQWKVDNALQSGNSQESVTEQDSKDSTYSLSSTLTLSKADYEKHKVYACEVTHQGLSSPVTKSFNRGEC
As to B3, in the assay with human PD-1 [2], the EC50 fold change was 3. Moreover, the half-maximal effective concentration (EC50) with human PD-1 [4] was found to be 0.042 nM.

B4: LB314 (bispecific antibody)
chain 1: DIVMTQSPDSLAVSLGERATISCKSSQSLLNSGNQKNYLTWYQQKPGQPPKLLIYWASTRESGVPDRFSGSGSGTDFTLTISSLQAEDVAVYYCQNDYFYPFTFGQGTKLEIK
chain 2: QVQLVQSGAEVKKPGSSVKVSCKASGYAFSNYLIEWVKQAPGQGLEWIGLINPGSGGTNYNEKFKGKATITADKSTSTAYMELSSLRSEDTAVYYCARVYYGNSFAYWGQGTLVTVSS
chain 3: not shown
chain 4: QVQLVQSGAEVKKPGSSVKVSCKASGYAFSNYLIEWVKQAPGQGLEWIGLINPGSGGTNYNEKFKGKATITADKSTSTAYMELSSLRSEDTAVYYCARVYYGNSFAYWGQGTLVTVSS
chain 5: DIVMTQSPDSLAVSLGERATISCKSSQSLLNSGNQKNYLTWYQQKPGQPPKLLIYWASTRESGVPDRFSGSGSGTDFTLTISSLQAEDVAVYYCQNDYFYPFTFGQGTKLEIK
chain 6: not shown
For B4, the EC50 fold change with human PD-1 [2] amounted to 5.2. The EC50 in the assay with human PD-1 [4] turned out to be 0.083 nM.

B5: LB308 (bispecific antibody)
chain 1: not shown
chain 2: QVQLVQSGAEVKKPGSSVKVSCKASGYAFSNYLIEWVKQAPGQGLEWIGLINPGSGGTNYNEKFKGKATITADKSTSTAYMELSSLRSEDTAVYYCARVYYGNSFAYWGQGTLVTVSS
chain 3: DIVMTQSPDSLAVSLGERATISCKSSQSLLNSGNQKNYLTWYQQKPGQPPKLLIYWASTRESGVPDRFSGSGSGTDFTLTISSLQAEDVAVYYCQNDYFYPFTFGQGTKLEIK
chain 4: EIVLTQSPATLSLSPGERATLSCRASKGVSTSGYSYLHWYQQKPGQAPRLLIYLASYLESGVPARFSGSGSGTDFTLTISSLEPEDFAVYYCQHSRDLPLTFGGGTKVEIKRTVAAPSVFIFPPSDEQLKSGTASVVCLLNNFYPREAKVQWKVDNALQSGNSQESVTEQDSKDSTYSLSSTLTLSKADYEKHKVYACEVTHQGLSSPVTKSFNRGEC
As for B5, the IC50 fold change with human PD-1 [1] came out at 1.8. In the assay with human PD-1 [2], the EC50 fold change was determined as 0.93. Moreover, the IC50 in the assay with human PD-1 [3] came to 1.93 nM. Besides, the half-maximal effective concentration (EC50) in the assay with human PD-1 [4] is 0.25 nM.
